Tested on: Escherichia coli TOP10
Experiment: shrunken log2 fold change of peptide-encoding DNA abundance (4.5 h post-induction vs induction); higher = less antimicrobial activity (less host growth inhibition)
Details: time post-induction: 4.5 h; library: site-saturation at positions 5, 18, 19, 20
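Further: peptides expressed intracellularly from a pBAD plasmid library in pooled LB shake-flask culture, induced with 0.3% L-arabinose, DNA abundance read by NGS, three biological replicates, DESeq2 with apeglm shrinkage.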

Sequence: RRIRKRPPRLPRPRPRPLLNPRP
- shrunken log2 fold change: -0.295

Sequence: RRIRWRPPRLPRPRPRPFGGPRP
- shrunken log2 fold change: 0.0764

Sequence: RRIRPRPPRLPRPRPRPLRQPRP
- shrunken log2 fold change: 0.0954

Sequence: RRIRARPPRLPRPRPRPHWSPRP
- shrunken log2 fold change: -0.0356

Sequence: RRIRDRPPRLPRPRPRPDYMPRP
- shrunken log2 fold change: 0.0916

Sequence: RRIRHRPPRLPRPRPRPVDFPRP
- shrunken log2 fold change: 0.0522

Sequence: RRIRDRPPRLPRPRPRPEDRPRP
- shrunken log2 fold change: 0.0616

Sequence: RRIRKRPPRLPRPRPRPFEEPRP
- shrunken log2 fold change: 0.148

Sequence: RRIRGRPPRLPRPRPRPLWDPRP
- shrunken log2 fold change: 0.537

Sequence: RRIRWRPPRLPRPRPRPMADPRP
- shrunken log2 fold change: 0.0452

Sequence: RRIRARPPRLPRPRPRPLNCPRP
- shrunken log2 fold change: -0.08

Sequence: RRIRCRPPRLPRPRPRPFGKPRP
- shrunken log2 fold change: -0.0592

Sequence: RRIRPRPPRLPRPRPRPDVFPRP
- shrunken log2 fold change: -0.203

Sequence: RRIRLRPPRLPRPRPRPEDVPRP
- shrunken log2 fold change: -0.0818

Sequence: RRIRDRPPRLPRPRPRPMNFPRP
- shrunken log2 fold change: -0.285

Sequence: RRIRSRPPRLPRPRPRPDAIPRP
- shrunken log2 fold change: 0.339

Sequence: RRIRGRPPRLPRPRPRPILYPRP
- shrunken log2 fold change: 0.0934

Sequence: RRIRGRPPRLPRPRPRPPMGPRP
- shrunken log2 fold change: 0.59

Sequence: RRIRMRPPRLPRPRPRPHPKPRP
- shrunken log2 fold change: 0.0698

Sequence: RRIRYRPPRLPRPRPRPRCDPRP
- shrunken log2 fold change: -0.207

Sequence: RRIRFRPPRLPRPRPRPFFIPRP
- shrunken log2 fold change: -0.429

Sequence: RRIRDRPPRLPRPRPRPFLKPRP
- shrunken log2 fold change: -0.212

Sequence: RRIRMRPPRLPRPRPRPEQHPRP
- shrunken log2 fold change: 1.06

Sequence: RRIRIRPPRLPRPRPRPFFKPRP
- shrunken log2 fold change: -0.629

Sequence: RRIRERPPRLPRPRPRPGRMPRP
- shrunken log2 fold change: 0.0231

Sequence: RRIRKRPPRLPRPRPRPMNPPRP
- shrunken log2 fold change: 0.0725

Sequence: RRIRMRPPRLPRPRPRPHVQPRP
- shrunken log2 fold change: -0.0996

Sequence: RRIRLRPPRLPRPRPRPSEMPRP
- shrunken log2 fold change: -0.0614

Sequence: RRIRKRPPRLPRPRPRPIMYPRP
- shrunken log2 fold change: 0.0532

Sequence: RRIRGRPPRLPRPRPRPKMMPRP
- shrunken log2 fold change: 0.345

Sequence: RRIRDRPPRLPRPRPRPGESPRP
- shrunken log2 fold change: -0.00997

Sequence: RRIRFRPPRLPRPRPRPNSTPRP
- shrunken log2 fold change: -0.671

Sequence: RRIRFRPPRLPRPRPRPNHQPRP
- shrunken log2 fold change: -0.736

Sequence: RRIRVRPPRLPRPRPRPMFLPRP
- shrunken log2 fold change: -0.557

Sequence: RRIRVRPPRLPRPRPRPVKYPRP
- shrunken log2 fold change: 0.228

Sequence: RRIRHRPPRLPRPRPRPEYTPRP
- shrunken log2 fold change: -0.0512

Sequence: RRIRCRPPRLPRPRPRPYKKPRP
- shrunken log2 fold change: 0.104

Sequence: RRIRYRPPRLPRPRPRPRMLPRP
- shrunken log2 fold change: -1.08

Sequence: RRIRTRPPRLPRPRPRPRLIPRP
- shrunken log2 fold change: -0.113

Sequence: RRIRHRPPRLPRPRPRPSKSPRP
- shrunken log2 fold change: -0.143

Sequence: RRIRWRPPRLPRPRPRPMNGPRP
- shrunken log2 fold change: -0.131

Sequence: RRIRGRPPRLPRPRPRPVVRPRP
- shrunken log2 fold change: 0.602

Sequence: RRIRFRPPRLPRPRPRPVSRPRP
- shrunken log2 fold change: -0.145

Sequence: RRIRHRPPRLPRPRPRPQCTPRP
- shrunken log2 fold change: -0.124

Sequence: RRIRLRPPRLPRPRPRPRYTPRP
- shrunken log2 fold change: -0.0696

Sequence: RRIRPRPPRLPRPRPRPFKGPRP
- shrunken log2 fold change: -0.209

Sequence: RRIRCRPPRLPRPRPRPERMPRP
- shrunken log2 fold change: -0.015

Sequence: RRIRNRPPRLPRPRPRPDQTPRP
- shrunken log2 fold change: -0.0645

Sequence: RRIRSRPPRLPRPRPRPLLIPRP
- shrunken log2 fold change: -0.0597

Sequence: RRIRTRPPRLPRPRPRPQIRPRP
- shrunken log2 fold change: -0.312

Sequence: RRIRVRPPRLPRPRPRPRSMPRP
- shrunken log2 fold change: -0.123

Sequence: RRIRCRPPRLPRPRPRPACFPRP
- shrunken log2 fold change: 0.0497

Sequence: RRIRERPPRLPRPRPRPKLPPRP
- shrunken log2 fold change: 0.0983

Sequence: RRIRGRPPRLPRPRPRPAINPRP
- shrunken log2 fold change: 0.419

Sequence: RRIRFRPPRLPRPRPRPETWPRP
- shrunken log2 fold change: 0.0692

Sequence: RRIRFRPPRLPRPRPRPCVDPRP
- shrunken log2 fold change: 0.0365

Sequence: RRIRMRPPRLPRPRPRPVSCPRP
- shrunken log2 fold change: 0.141

Sequence: RRIRQRPPRLPRPRPRPAQDPRP
- shrunken log2 fold change: 0.226

Sequence: RRIRGRPPRLPRPRPRPASNPRP
- shrunken log2 fold change: 0.375

Sequence: RRIRNRPPRLPRPRPRPGGDPRP
- shrunken log2 fold change: 0.00185

Sequence: RRIRFRPPRLPRPRPRPAWKPRP
- shrunken log2 fold change: -0.284

Sequence: RRIRVRPPRLPRPRPRPEKGPRP
- shrunken log2 fold change: -0.09

Sequence: RRIRLRPPRLPRPRPRPWNLPRP
- shrunken log2 fold change: -0.0149

Sequence: RRIRTRPPRLPRPRPRPVCEPRP
- shrunken log2 fold change: 0.243

Sequence: RRIRRRPPRLPRPRPRPQMYPRP
- shrunken log2 fold change: -0.183

Sequence: RRIRLRPPRLPRPRPRPFQQPRP
- shrunken log2 fold change: 0.0873

Sequence: RRIRRRPPRLPRPRPRPAHIPRP
- shrunken log2 fold change: 0.0825

Sequence: RRIRMRPPRLPRPRPRPDSGPRP
- shrunken log2 fold change: -0.01

Sequence: RRIRMRPPRLPRPRPRPFESPRP
- shrunken log2 fold change: -0.00973

Sequence: RRIRYRPPRLPRPRPRPQIYPRP
- shrunken log2 fold change: -0.132

Sequence: RRIRRRPPRLPRPRPRPKNFPRP
- shrunken log2 fold change: 0.151

Sequence: RRIRQRPPRLPRPRPRPAQEPRP
- shrunken log2 fold change: 0.852

Sequence: RRIRSRPPRLPRPRPRPMPAPRP
- shrunken log2 fold change: 0.26

Sequence: RRIRVRPPRLPRPRPRPYYNPRP
- shrunken log2 fold change: -0.548

Sequence: RRIRPRPPRLPRPRPRPEQVPRP
- shrunken log2 fold change: 0.0348

Sequence: RRIRSRPPRLPRPRPRPTIEPRP
- shrunken log2 fold change: -0.0439

Sequence: RRIRQRPPRLPRPRPRPLFNPRP
- shrunken log2 fold change: -0.367

Sequence: RRIRCRPPRLPRPRPRPVATPRP
- shrunken log2 fold change: 0.443

Sequence: RRIRHRPPRLPRPRPRPGFDPRP
- shrunken log2 fold change: 0.105

Sequence: RRIRIRPPRLPRPRPRPIHAPRP
- shrunken log2 fold change: -0.00674

Sequence: RRIRTRPPRLPRPRPRPSQMPRP
- shrunken log2 fold change: -0.607

Sequence: RRIRGRPPRLPRPRPRPYGCPRP
- shrunken log2 fold change: -0.091

Sequence: RRIRYRPPRLPRPRPRPTTVPRP
- shrunken log2 fold change: -0.243

Sequence: RRIRCRPPRLPRPRPRPQFSPRP
- shrunken log2 fold change: -0.145

Sequence: RRIRFRPPRLPRPRPRPYRGPRP
- shrunken log2 fold change: -0.384

Sequence: RRIRCRPPRLPRPRPRPLRWPRP
- shrunken log2 fold change: 0.613

Sequence: RRIRFRPPRLPRPRPRPYKDPRP
- shrunken log2 fold change: -0.213

Sequence: RRIRWRPPRLPRPRPRPEAWPRP
- shrunken log2 fold change: 1.02

Sequence: RRIRGRPPRLPRPRPRPVLIPRP
- shrunken log2 fold change: 0.223

Sequence: RRIRCRPPRLPRPRPRPTIGPRP
- shrunken log2 fold change: -0.0746

Sequence: RRIRLRPPRLPRPRPRPDHKPRP
- shrunken log2 fold change: -0.257

Sequence: RRIRCRPPRLPRPRPRPPWSPRP
- shrunken log2 fold change: 0.175

Sequence: RRIRLRPPRLPRPRPRPENEPRP
- shrunken log2 fold change: -0.0211

Sequence: RRIRIRPPRLPRPRPRPPGHPRP
- shrunken log2 fold change: 0.11

Sequence: RRIRLRPPRLPRPRPRPHCMPRP
- shrunken log2 fold change: -0.283

Sequence: RRIRLRPPRLPRPRPRPTHAPRP
- shrunken log2 fold change: 0.029

Sequence: RRIRGRPPRLPRPRPRPHWKPRP
- shrunken log2 fold change: 0.184

Sequence: RRIRTRPPRLPRPRPRPCDCPRP
- shrunken log2 fold change: -0.0712

Sequence: RRIRSRPPRLPRPRPRPDWMPRP
- shrunken log2 fold change: 0.0892

Sequence: RRIRCRPPRLPRPRPRPCLSPRP
- shrunken log2 fold change: -0.381

Sequence: RRIRCRPPRLPRPRPRPLSYPRP
- shrunken log2 fold change: -1.29

Sequence: RRIRIRPPRLPRPRPRPSCCPRP
- shrunken log2 fold change: -0.471

Sequence: RRIRSRPPRLPRPRPRPRDKPRP
- shrunken log2 fold change: 0.0811

Sequence: RRIRFRPPRLPRPRPRPTAVPRP
- shrunken log2 fold change: 0.117

Sequence: RRIRMRPPRLPRPRPRPSTAPRP
- shrunken log2 fold change: 0.788

Sequence: RRIRIRPPRLPRPRPRPQGNPRP
- shrunken log2 fold change: -0.304

Sequence: RRIRIRPPRLPRPRPRPQSEPRP
- shrunken log2 fold change: -0.219

Sequence: RRIRDRPPRLPRPRPRPHKHPRP
- shrunken log2 fold change: -0.217

Sequence: RRIRQRPPRLPRPRPRPGERPRP
- shrunken log2 fold change: 0.0849

Source: the supplement of paper PMC9112550, “Optimization of the antimicrobial peptide Bac7 by deep mutational scanning” (BMC Biology, 2022)
